Results taken from patent US20210380656A1 (ACADEMISCH ZIEKENHUIS LEIDEN H O D N LUMC, published 2021).

T1: HA-1^H, minor histocompatibility antigen encoded by HMHA1 (Rho GTPase-activating protein 45), R139H … (human)
T1 peptide: VLHDDLLEA


Assays:
HA-1 pMHC tetramer = target: T2, HA-1 pMHC tetramer (human); experiment: HA-1 pMHC tetramer staining of peripheral T cells transduced with the TCR chains, flow cytometry
T2 construct: also called HA-1 tetramer; HA-1-tetramer

[1] = target: T1, HA-1^H, minor histocompatibility …; experiment: multimer staining

Row | MFI of HA-1 pMHC tetramer (HA-1 pMHC tetramer) [MFI] | binding result [1] | Binder
1 |  | recognises | Chimeric HA-1 TCR: M7 TCR alpha chain (TRAV25*01) with M2 TCR beta chain (TRBV7-9) (TCR, V domains shown) Valpha: GQQVMQIPQYQHVQEGEDFTTYCNSSTTLSNIQWYKQRPGGHPVFLIQLVKSGEVKKQKRLTFQFGEAKKNSSLHITATQTTDVGTYFCAGNTGGFKTIFGAGTRLFVKA Vbeta: DTGVSQNPRHKITKRGQNVTFRCDPISEHNRLYWYRQTLGQGPEFLTYFQNEAQLEKSRLLSDRFSAERPKGSFSTLEIQRTEQGDSAMYLCASLTVQNTEAFFGQGTRLTVV
2 |  | recognises | HA-1^H TCR M7 (TCR, V domains shown) Valpha: GQQVMQIPQYQHVQEGEDFTTYCNSSTTLSNIQWYKQRPGGHPVFLIQLVKSGEVKKQKRLTFQFGEAKKNSSLHITATQTTDVGTYFCAGNTGGFKTIFGAGTRLFVKA Vbeta: DTGVSQDPRHKITKRGQNVTFRCDPISEHNRLYWYRQTLGQGPEFLTYFQNEAQLEKSRLLSDRFSAERPKGSFSTLEIQRTEQGDSAMYLCASSLLGNQPQHFGDGTRLSIL
3 |  | recognises | HA-1^H TCR M2 (TCR, V domains shown) Valpha: GENVEQHPSTLSVQEGDSAVIKCTYSDSASNYFPWYKQELGKRPQLIIDIRSNVGEKKDQRIAVTLNKTAKHFSLHITETQPEDSAVYFCAARNSGAGSYQLTFGKGTKLSVIP Vbeta: DTGVSQNPRHKITKRGQNVTFRCDPISEHNRLYWYRQTLGQGPEFLTYFQNEAQLEKSRLLSDRFSAERPKGSFSTLEIQRTEQGDSAMYLCASLTVQNTEAFFGQGTRLTVV

The next lines start with the binder.

Row | Binder | MFI of HA-1 pMHC tetramer (HA-1 pMHC tetramer) [MFI] | binding result [1]
4 | HA-1-TCR of clone M7 (M7 TRBV7-9 with M7 TRAV25*01), unmodified (TCR, V domains shown, Expressed on transduced T cells; also called HA-1^H TCR M7; HA-1-TCR WT) V domain 1: GQQVMQIPQYQHVQEGEDFTTYCNSSTTLSNIQWYKQRPGGHPVFLIQLVKSGEVKKQKRLTFQFGEAKKNSSLHITATQTTDVGTYFCAGNTGGFKTIFGAGTRLFVKA V domain 2: GVSQDPRHKITKRGQNVTFRCDPISEHNRLYWYRQTLGQGPEFLTYFQNEAQLEKSRLLSDRFSAERPKGSFSTLEIQRTEQGDSAMYLCASSLLGNQPQHFGDGTRLSILE | 33.8 | 
5 | HA-1-TCR of clone M2 (M2 TRBV7-9 with M2 TRAV13-1*02) (TCR, V domains shown, Expressed on transduced peripheral T cells; also called HA-1^H TCR M2) V domain 1: GENVEQHPSTLSVQEGDSAVIKCTYSDSASNYFPWYKQELGKRPQLIIDIRSNVGEKKDQRIAVTLNKTAKHFSLHITETQPEDSAVYFCAARNSGAGSYQLTFGKGTKLSVIP V domain 2: DTGVSQNPRHKITKRGQNVTFRCDPISEHNRLYWYRQTLGQGPEFLTYFQNEAQLEKSRLLSDRFSAERPKGSFSTLEIQRTEQGDSAMYLCASLTVQNTEAFFGQGTRLTVVE | 24.2 | 
6 | Chimeric TCR: M2 TRBV7-9 beta chain with M7 TRAV25*01 alpha chain (TCR, V domains shown, The entries include the leader) V domain 1: GQQVMQIPQYQHVQEGEDFTTYCNSSTTLSNIQWYKQRPGGHPVFLIQLVKSGEVKKQKRLTFQFGEAKKNSSLHITATQTTDVGTYFCAGNTGGFKTIFGAGTRLFVKA V domain 2: DTGVSQNPRHKITKRGQNVTFRCDPISEHNRLYWYRQTLGQGPEFLTYFQNEAQLEKSRLLSDRFSAERPKGSFSTLEIQRTEQGDSAMYLCASLTVQNTEAFFGQGTRLTVVE | 32.6 | 
